According to patent publication US20260116956A1, “ANTIBODY BASED TREATMENT TO REDUCE GUT BACTERIAL GLYCAN AND ASSOCIATED BACTERIA” (priority 2022, published 2026):
Where a chain is given by its changes, count along the chain named. Like-named read-outs stand apart in the source and are kept apart here.

B1: mAb 33.2.2: murine monoclonal anti-R. gnavus lipoglycan antibody; VH SEQ ID NO: 4, VL SEQ ID NO: 9 (antibody, V domains shown)
VH: EVQLQESGPSLVKPSQTLSLTCSVTGDSITSGYWNWIRKFPGNKLEYLGYINYSGSTYYNPSLRSRISITRDTSKNQYYLQLNAVTTEDTATYYCARYYYHDDSYAMDNWGQGTSVTVSS
VL: DIQMNQSPSSLSASLGDTITITCHASQNINVWLSWFQQKPGNIPKLLIYKASNLHTGVPSRFSGTGSGTGFTLTISSLQPEDIATYYCQQGQSYPLTFGAGTKLELK
B2: mAb 34.2.2: murine monoclonal anti-R. gnavus lipoglycan antibody; VH SEQ ID NO: 13, VL SEQ ID NO: 15 (antibody, V domains shown)
VH: B1 VH with L48M, S56T, R64K, A84S, H101Y, D103S, N109Y
VL: B1 VL with T65S

Columns and labels:
[1] = tested on: intestinal permeability of RG strain colonized mice; settings: 0.15 mg/ml in drinking water, 10 days
Experimental: For each group mean+/−standard deviation (SD) (FIG. 9A). […] For the bottom panels, significance was tested by paired t test. *p<0.05 was considered statistically significant.
In vivo assay of intestinal permeability. To assess intestinal permeability, after a 4-hours fasting from food and water, mice were orally gavaged with 4,000-Da fluorescein (FITC)-dextran (FD4) (Sigma-Aldrich, St. Louis, MO) (250 mg/kg body weight) in doses of 200 μl, and blood was collected 3 hours later. The concentration of the FD4 was determined using a fluorimeter with an excitation wavelength of 490 nm and an emission wavelength of 530 nm. To assess concentration, FD4 in serum was then serially diluted to establish a standard curve.
Leaky gut recovery studies. Zonulin antagonist, larazotide acetate (known as AT-1001, or INN-202), was purchased from BOC Sciences, NY. Individual neonatally-colonized littermates from SPF mice, colonized with different RG strains, were retested after FD4 challenge, and those with abnormal levels then each received 0.15 mg/ml of the zonulin antagonist in drinking water, which was refreshed every day, for 10 consecutive days. After 24 hours rest, intestinal permeability was then retested.

[2] = tested on: purified LG from RG2 (RG2-LG); assay: Immunoblot, purified lipoglycan from RG2 strain; format: binding, Ruminococcus gnavus
Experimental: (§1) LPS from a Pseudomonas species.
(§2) In this assay, LG or nuclease-treated RG strain extracts were precoated overnight onto the well, then after blocking with bovine serum albumin, the mAbs, or isotype control at 1 μg/ml were incubated for 4 hours, then washed and developed (see below-described methods) (FIG. 15A). Immunoblot with mAb 33.2.3 (FIG. 15B) and immunoblot with 34.2.2 mAb (FIG. 15C), detect antigenically related LG oligobands in extracts of R. gnavus strains isolated from active Lupus nephritis strains. In each panel is shown samples of purified lipoglycan from the Lupus S47-18 strain, and the RG2 strain of R. gnavus. At left, extracts of whole bacteria are shown for the RG1 strain (from a healthy donor), and the Lupus-derived strains; S107-48, S107-86, S47-18, and for the RG2 strain.
(§3) Immunoblotting. Electrophoretic separation used Bis-Tris mini gels (Novex, Thermo Fisher) with bacterial extracts loaded at the same concentration, then transferred to membranes, which were incubated with sera diluted at 1:100, and incubated overnight at 4° C. For detection, anti-human IgG biotin conjugated (Jackson ImmunoResearch Labs, USA) was added and developed by IRDye® 800CW Streptavidin (LI-COR®).

[3] = tested on: extract of RG1 strain; assay: Immunoblot, RG1 extract; format: binding, Ruminococcus gnavus; settings: strain from a healthy donor, lacks the lipoglycan
Experimental: as §1, §2
(§4) To generate RG-specific monoclonal antibodies, 10 BALB/c mice were immunized with extract of the (CC55_001C), termed RG2 strain, emulsified in complete Freund's adjuvant and then boosted with lipoglycan (LG) purified from the Lupus S47-18 strain emulsified in incomplete Freund's adjuvant. The spleen from the mouse with the strongest post-immunization was fused with the NS-1 myeloma cells.
(§5) Immunoblotting. […]

[4] = tested on: extract of Lupus RG strain S107-48; assay: Immunoblot, S107-48 extract; format: binding, Ruminococcus gnavus
Experimental: as §1, §2, §4, §5

[5] = tested on: purified LG from the RG2 strain; assay: Direct binding ELISA, purified lipoglycan from RG2 strain; design: species or system Ruminococcus gnavus; settings: antigen coated on ELISA plate
Experimental: as §2
(§6) Assays of antigen-reactive IgG antibodies. A custom multiplex bead-based array for the Magpix platform (Luminex, Austin TX) was created by coupling a variety of highly purified thymic native DNAs, purified cell wall lipoglycan (LG) from the RG2 strain (i.e., IgG anti-RG2 LG (formerly termed LG3) (Azzouz et al., 2019)), and the Lupus RG strain S47-18 (i.e., IgG anti-S47-18 strain LG), recombinant S. aureus proteins, endotoxins, and other bacterial antigens and control ligands, to individual microspheres, adapting the manufacturer's protocol and previous reports (Pelzek et al., 2017; Pelzek et al., 2018b; Radke et al., 2018). For antigen-reactive IgG detection, 1,000 microspheres per analyte per well were premixed, sonicated, and then diluted with addition of 100 μl of serum, as indicated. For ELISA bound IgG antibodies were detected with Fc-gamma-specific anti-murine IgG HRP (eBioscience, San Diego CA), and for multiplex bead-based assay with anti-mouse IgG (Fc-specific) F(ab′)2 PE (Jackson ImmunoResearch, West Grove PA). Data were acquired on a Magpix instrument (Luminex) and reported as mean fluorescence intensity (MFI) values, as previously described (Pelzek et al., 2017; Pelzek et al., 2018a; Radke et al., 2018). Plasma zonulin were quantitated with a commercial ELISA Kit. (MyBioSource, San Diego CA.).
(§7) Direct binding ELISA. To detect the reactivity of the murine monoclonal antibodies (mAb) […] and mAb 34.2.2 with the different RG strains, the ELISA plates were coated with the bacterial extracts from RG2, S47-18, S107-48, S107-86, RG1 as well as with the purified lipoglycan from the strains RG2 and S47-18. Next, the murine monoclonal antibodies were added at two concentrations (at 100 ng/ml and 25 ng/ml) in duplicate, incubated for 2 h at RT. Binding was detected with goat anti mouse IgG HRP conjugated at 1:10,000 (Jackson ImmunoResearch), then TMB substrate was added to develop the plate.

[6] = tested on: bacterial extract of Lupus strain S107-48; assay: Direct binding ELISA, S107-48 bacterial extract; design: species or system Ruminococcus gnavus; settings: extract coated on ELISA plate
Experimental: as §2, with “At left, extracts of whole bacteria are shown for the RG1 strain (from a healthy donor), and the Lupus-derived strains; S107-48, S107-86, S47-18, and for the RG2 strain.” left out
(§8) Assays of antigen-reactive IgG antibodies. […] For ELISA bound IgG antibodies were detected with Fc-gamma-specific anti-murine IgG HRP (eBioscience, San Diego CA), and for multiplex bead-based assay with anti-mouse IgG (Fc-specific) F(ab′)2 PE (Jackson ImmunoResearch, West Grove PA). Data were acquired on a Magpix instrument (Luminex) and reported as mean fluorescence intensity (MFI) values, as previously described (Pelzek et al., 2017; Pelzek et al., 2018a; Radke et al., 2018). Plasma zonulin were quantitated with a commercial ELISA Kit. […]
(§9) Direct binding ELISA. […] Binding was detected with goat anti mouse IgG HRP conjugated at 1:10,000 (Jackson ImmunoResearch), then TMB substrate was added to develop the plate.

[7] = tested on: extract of the RG1 type strain (ATCC29149); assay: Direct binding ELISA, RG1 bacterial extract; design: species or system Ruminococcus gnavus; settings: extract coated on ELISA plate; strain lacks the lipoglycan
Experimental: as §2, with “At left, extracts of whole bacteria are shown for the RG1 strain (from a healthy donor), and the Lupus-derived strains; S107-48, S107-86, S47-18, and for the RG2 strain.” left out
as §8, §9

[8] = tested on: purified LG from the S47-18 strain; assay: Direct binding ELISA, purified lipoglycan from S47-18 strain; design: species or system Ruminococcus gnavus; settings: antigen coated on ELISA plate
Experimental: as §2, with “At left, extracts of whole bacteria are shown for the RG1 strain (from a healthy donor), and the Lupus-derived strains; S107-48, S107-86, S47-18, and for the RG2 strain.” left out
as §8, §9

[9] = tested on: bacterial extract of the RG2 strain (CC55_001C); assay: Direct binding ELISA, RG2 bacterial extract; design: species or system Ruminococcus gnavus; settings: extract coated on ELISA plate
Experimental: as §2, §6, §7

[10] = tested on: bacterial extract of Lupus strain S107-86; assay: Direct binding ELISA, S107-86 bacterial extract; design: species or system Ruminococcus gnavus; settings: extract coated on ELISA plate
Experimental: as §2, §6, §7

[11] = tested on: extract of Lupus RG strain S107-86; assay: Immunoblot, S107-86 extract; format: binding, Ruminococcus gnavus
Experimental: as §2, §3

[12] = tested on: bacterial extract of Lupus strain S47-18; assay: Direct binding ELISA, S47-18 bacterial extract; design: species or system Ruminococcus gnavus; settings: extract coated on ELISA plate
Experimental: as §2, §6, §7

[13] = tested on: extract of the RG2 strain; assay: Immunoblot, RG2 extract; format: binding, Ruminococcus gnavus
Experimental: as §1, §2, §4, §5

[14] = tested on: extract of Lupus RG strain S47-18; assay: Immunoblot, S47-18 extract; format: binding, Ruminococcus gnavus
Experimental: as §1, §2, §4, §5

[15] = tested on: purified LG from the S47-18 strain; assay: Immunoblot, purified lipoglycan from S47-18 strain; format: binding, Ruminococcus gnavus
Experimental: as §2, §3

Row | Molecule | Immunoblot reactivity with purified LG from RG2 strain [2] | Immunoblot reactivity with RG1 extract [3] | Immunoblot reactivity with LG oligobands in S107-48 extract [4] | ELISA reactivity with purified LG from RG2 strain [5] | ELISA reactivity with extract of Lupus strain S107-48 [6] | ELISA reactivity with RG1 type strain extract [7] | ELISA reactivity with purified LG from S47-18 strain [8] | ELISA reactivity with extract of RG2 strain [9] | ELISA reactivity with extract of Lupus strain S107-86 [10] | Immunoblot reactivity with LG oligobands in S107-86 extract [11] | ELISA reactivity with extract of Lupus strain S47-18 [12] | Immunoblot reactivity with LG oligobands in RG2 extract [13] | Immunoblot reactivity with LG oligobands in S47-18 extract [14] | Immunoblot reactivity with purified LG from S47-18 strain [15] | also measured
1 | larazotide acetate |  |  |  |  |  |  |  |  |  |  |  |  |  |  | Gut barrier function (plasma FD4 after challenge), before vs after treatment ([1]; Lupus S47-18 strain colonized mice, p=0.01): normalized; Gut barrier function (plasma FD4 after challenge), before vs after treatment ([1]; Lupus S107-48 strain colonized mice, p=0.01): normalized; Gut barrier function (plasma FD4 after challenge), before vs after treatment ([1]; RG2 strain colonized mice, p=0.03): normalized
2 | B1 | bound | no reactivity | recognized oligoband antigen | strongly react | reactive | non-reactive | strongly react | reactive | reactive | recognized oligoband antigen | reactive | recognized oligoband antigen | recognized oligoband antigen | bound | ELISA reactivity with purified LG from RG2 strain ([5]; listed as 33.2.3): reactivity; ELISA reactivity with extract of RG2 strain ([9]; listed as 33.2.3): reactivity; ELISA reactivity with extract of Lupus strain S107-86 ([10]; listed as 33.2.3): reactivity; ELISA reactivity with extract of Lupus strain S47-18 ([12]; listed as 33.2.3): reactivity
3 | B2 | bound | no reactivity | recognized oligoband antigen | strongly react | reactive | non-reactive | strongly react | reactive | reactive | recognized oligoband antigen | reactive | recognized oligoband antigen | recognized oligoband antigen | bound | ELISA reactivity with purified LG from RG2 strain ([5]; listed as 34.2.2): reactivity; ELISA reactivity with extract of RG2 strain ([9]; listed as 34.2.2): reactivity; ELISA reactivity with extract of Lupus strain S107-86 ([10]; listed as 34.2.2): reactivity; ELISA reactivity with extract of Lupus strain S47-18 ([12]; listed as 34.2.2): reactivity
